From patent US20190309069A1 (SHANGHAI HENGRUI PHARMACEUTICAL, published 2019)

T1: human ICOS/Fc (Beijing Sino Biological Inc.) (human, UniProt Q9Y6W8 21-141, limits assumed)
T1 construct: Bought reagent; not shown: Fc part
T1 sequence (looked up): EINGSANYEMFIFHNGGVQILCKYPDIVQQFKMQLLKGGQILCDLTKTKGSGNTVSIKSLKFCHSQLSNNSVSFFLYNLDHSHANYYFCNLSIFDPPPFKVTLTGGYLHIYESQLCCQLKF

T2: human CTLA4 (Beijing Sino Biological Inc.) (human, UniProt P16410 36-162, limits assumed)
T2 construct: Bought reagent
T2 sequence (looked up): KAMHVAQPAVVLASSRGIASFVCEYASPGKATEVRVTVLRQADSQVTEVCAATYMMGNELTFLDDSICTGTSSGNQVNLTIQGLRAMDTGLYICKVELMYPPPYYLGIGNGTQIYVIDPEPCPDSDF

T3: mouse PD1-Fc (Beijing Sino Biological Inc.) (mouse, UniProt Q02242 25-167, limits assumed)
T3 construct: Bought reagent; also called murine PD-1; not shown: Fc part
T3 sequence (looked up): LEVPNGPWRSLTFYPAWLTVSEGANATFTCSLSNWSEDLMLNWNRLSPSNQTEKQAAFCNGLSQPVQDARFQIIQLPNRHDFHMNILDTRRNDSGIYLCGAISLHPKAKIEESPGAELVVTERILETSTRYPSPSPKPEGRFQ


Tests used:
[1] = molecular target: T4, recombinant PD-1 extracellular domain Fc fusion protein (PD-1 Fc) (human, biotin label (sites not given) in the ELISA binding assay; unlabelled when coated in the ligand blocking assay); assay: ELISA as in Example 2, biotinylated PD-1 Fc captured on avidin
T4 construct: also called human PD-1Fc; human PD-1
Method: (§1) The PD-1 antibody blocks signaling pathway of PD-1 and its ligand by binding to PD-1 extracellular domain. In vitro ELISA assay is used to detect the binding property of the PD-1 antibody. Biotinylated PD-1 extracellular domain FC fusion protein (PD-1 FC) is coated onto 96-well plates by binding to neutralization avidin. Signal intensity after the addition of the antibody is used to determine the binding property of the antibody and PD-1.
(§2) Neutralization avidin (binding to biotin) was diluted to 1 μl/ml with PBS buffer, pipetted into a 96-well plate with at 100 μl/well and standed for 16 h-20 h at 4° C. The 96-well plate was washed once with PBST (PH7.4 PBS, containing 0.05% tweeen20) after PBS buffer was removed, then the plate was incubated and blocked for 1 h at room temperature with addition of 120 μl/well PBST/1% milk. After removal of the blocking solution, the plate was washed with PBST buffer, followed by addition of 1 μg/ml biotin-labeled PD1-FC which was diluted by PBST/1% milk, and incubated for 1 h at room temperature. After removal of the blocking solution, the plate was washed with PBST buffer for 3 times, followed by addition of the test PD-1 antibody which was diluted to a suitable concentration by PBST/1% milk, and incubated for 1.5 h at room temperature. After removal of reaction system, the plate was washed for 3 times with PBST buffer, followed by addition of 100 μl/well HRP-labeled anti-murine secondary antibody (The Jackson Laboratory) which was diluted by PBST/1% milk, and incubated for 1 h at room temperature. After being washed with PBST for three times, the plate was added with 100 μl/well TMB, and incubated for 5-10 min at room temperature. Then the reaction was terminated with addition of 100μ/well 1M H₂SO₄. The absorbance value at 450 nm was read on NOVOStar microplate reader; the ELISA binding EC₅₀ value was calculated.
(§3) Humanized antibodies were subjected to ELISA binding assay (method is the same as that of Example 2), ligand binding blocking assay (method is the same as that of Example 2), and affinity kinetics experiment (method is the same as that of Example 5) in vitro.

[2] = molecular target: T5, PD-1 His protein (Beijing Sino Biological Inc.) (UniProt Q15116 25-167, limits assumed); assay: Biacore SPR as in Example 5, PD-1 His as analyte
T5 construct: Bought reagent, analyte in the Biacore assay; not shown: His tag
Method: (§4) According to the instruction of a kit provided by Biacore, the test PD-1 antibody of the present invention was covalently linked to CM5 (GE) chip using a standard amino coupling method. Then a series of gradient concentrations of PD-1 His protein (Beijing Sino Biological Inc.), which were diluted in the same buffer, were loaded into each cycle successively. After that, the samples were regenerated with regenerated reagent in the kit. The antigen-antibody binding kinetics was tracked for 3 minutes and the dissociation kinetics was tracked for 10 minutes. The data obtained was analyzed by GE's BIAevaluation software using 1:1 (Langmuir) binding model.
as §3

[3] = molecular target: T4, recombinant PD-1 extracellular domain …; assay: ligand binding blocking ELISA as in Example 2, competitor biotin-labeled PD-L1
Method: (§5) In this experiment, a 96-well plate was coated with a PD-1 protein with the extracellular domain fused with FC (PD-1-FC), and incubated with the test PD-1 antibody; later biotin-labeled PD-L1 was added for incubation. After washing the plate, the binding amount of biotin-labeled PD-L1 was detected; the blocking IC₅₀ value of PD-1 antibody for ligand PD-L1 binding was calculated.
PD-1-FC was diluted to 1 μg/ml with PH 9.6 CB buffer (1.59 g Na₂CO₃ and 2.93 g NaHCO₃ were dissolved in 1 L of distilled water), pipetted into a 96-well plate at 100 μl/well and standed for 16 h-20 h at 4° C. The 96-well plate was washed once with PBST (PH7.4 PBS, containing 0.05% tweeen20) after PBS buffer was removed, then the plate was incubated and blocked for 1 h at room temperature with 120 μl/well PBST/1% milk. After removal of the blocking solution, the plate was washed with PBST buffer once, followed by addition of 90 μl of test PD-1 antibody which was diluted to a suitable concentration with sample diluents (PH7.4 PBS containing 5% BSA, 0.05% Tween20), and incubated for 1 h at 4° C. Then 10× concentrations of biotin-labeled PD-L1 (Beijing Sino Biological Inc.) (10 μg/ml) was added to the plate at 10 μl/well, oscillated and mixed by an oscillator, and incubated at 37° C. for 1 h. After removal of the reaction system, the plate was washed for 6 times with PBST buffer, followed by addition of 100 ul/well Streptavidin-Peroxidase Polymer which was diluted by PBST at a ratio of 1:400, and incubated under oscillation for 50 min at room temperature. After being washed with PBST for 6 times, the plate was added with 100 μl/well TMB, and incubated for 5-10 min at room temperature. Then the reaction was terminated with addition of 100 μl/well 1M H₂SO₄. The absorbance value at 450 nm was read on the NOVOStar microplate reader; the blocking IC₅₀ value of PD-1 for ligand PD-L1 binding was calculated.
as §3

[4] = molecular target: T4, recombinant PD-1 extracellular domain …; assay: ligand binding blocking ELISA: PD-1-FC coated, competitor biotin-labeled PD-L1
Method: as §5
PD-1-FC was diluted to 1 μg/ml with PH 9.6 CB buffer (1.59 g Na₂CO₃ and 2.93 g NaHCO₃ were dissolved in 1 L of distilled water), pipetted into a 96-well plate at 100 μl/well and standed for 16 h-20 h at 4° C. The 96-well plate was washed once with PBST (PH7.4 PBS, containing 0.05% tweeen20) after PBS buffer was removed, then the plate was incubated and blocked for 1 h at room temperature with 120 μl/well PBST/1% milk. After removal of the blocking solution, the plate was washed with PBST buffer once, followed by addition of 90 μl of test PD-1 antibody which was diluted to a suitable concentration with sample diluents (PH7.4 PBS containing 5% BSA, 0.05% Tween20), and incubated for 1 h at 4° C. […] The absorbance value at 450 nm was read on the NOVOStar microplate reader; the blocking IC₅₀ value of PD-1 for ligand PD-L1 binding was calculated.

[5] = molecular target: T1, human ICOS/Fc (Beijing Sino Biological …); assay: selectivity ELISA, protein coated at 1 µg/ml
Method: (§6) To detect the specific binding activity of PD-1 antibody to other proteins of the PD-1 family, human CTLA4 and human CD28 were used for binding assays. Meanwhile, the PD-1 of mice was also used for binding assays so as to determine the diversity of PD-1 antibody for different species other than human/monkey.
(§7) Selectively binding proteins: human PD-1, human ICOS, human CTLA4, human CD28 and mouse PD-1, (Beijing Sino Biological Inc.), were respectively diluted to 1 μg/ml with PBS buffer, pipetted into a 96-well plate at 100 μl/well and standed for 16 h-20 h at 4° C. The 96-well plate was washed once with PBST (PH7.4 PBS, containing 0.05% tweeen20) after PBS buffer was removed, then the plate was incubated and blocked for 1 h at room temperature with 120 μl/well PBST/1% milk. After removal of the blocking solution, the plate was washed with PBST buffer for 3 times, followed by addition of the test PD-1 antibody, and incubated for 1.5 h at room temperature. After removal of the reaction system, the plate was washed for 3 times with PBST, followed by addition of 100 μl/well HRP-labeled anti-murine secondary antibody (The Jackson Laboratory) which was diluted by PBST/1% milk, and incubated for 1 h at room temperature. The plate was washed for 3 times with PBST, followed by addition of 100 μl/well TMB, and incubated for 5-10 min at room temperature. Then the reaction was terminated with addition of 100 μl/well 1M H₂SO₄. The absorbance value at 450 nm was read on the NOVOStar microplate reader.

[6] = molecular target: T6, human CD28 (Beijing Sino Biological Inc.) (human, UniProt P10747 19-152); assay: selectivity ELISA, protein coated at 1 µg/ml
T6 construct: Bought reagent
Method: as §6, §7

[7] = molecular target: T2, human CTLA4 (Beijing Sino Biological …); assay: selectivity ELISA, protein coated at 1 µg/ml
Method: as §6, §7

[8] = molecular target: T7, human PD1-FC (Beijing Sino Biological Inc.) (human, UniProt Q15116 25-167, limits assumed); assay: selectivity ELISA, protein coated at 1 µg/ml
T7 construct: not shown: Fc part
Method: as §6, §7

[9] = molecular target: T3, mouse PD1-Fc (Beijing Sino Biological …); assay: selectivity ELISA, protein coated at 1 µg/ml
Method: as §6, §7

cynomolgus PD-1Fc = molecular target: T8, cynomolgus PD-1Fc (cynomolgus, UniProt B0LAJ3 25-170, Probably biotinylated for capture on avidin, as the human PD-1 FC was in this ELISA. Fused to an Fc that is not given.); assay: ELISA, cyno PD-1Fc
T8 construct: Source and construct of the cynomolgus PD-1 Fc fusion are not described; also called cyno PD-1; not shown: Fc part of the cynomolgus PD-1Fc fusion, and any linker

[10] = molecular target: T5, PD-1 His protein (Beijing Sino …); assay: Biacore SPR, antibody coupled to CM5 chip, PD-1 His as analyte, 1:1 model
Method: as §4

[11] = molecular target: T4, recombinant PD-1 extracellular domain …; assay: ELISA, biotinylated PD-1 Fc captured on avidin
Method: as §1
as §2, with “After removal of reaction system, the plate was washed for 3 times with PBST buffer, followed by addition of 100 μl/well HRP-labeled anti-murine secondary antibody (The Jackson Laboratory) which was diluted by PBST/1% milk, and incubated for 1 h at room temperature. After being washed with PBST for three times, the plate was added with 100 μl/well TMB, and incubated for 5-10 min at room temperature. Then the reaction was terminated with addition of 100μ/well 1M H₂SO₄.” left out

[12] = molecular target: T1, human ICOS/Fc (Beijing Sino Biological …); assay: ELISA, protein coated at 1 µg/ml
Method: as §6, §7

[13] = molecular target: T6, human CD28 (Beijing Sino Biological …); assay: ELISA, protein coated at 1 µg/ml
Method: as §6, §7

[14] = molecular target: T2, human CTLA4 (Beijing Sino Biological …); assay: ELISA, protein coated at 1 µg/ml
Method: as §6, §7

[15] = molecular target: T3, mouse PD1-Fc (Beijing Sino Biological …); assay: ELISA, protein coated at 1 µg/ml
Method: as §6, §7

EC50 [1]	Kd [2]	IC50 [3]	IC50 [4]	absorbance at 450 nm [5]	absorbance at 450 nm [6]	absorbance at 450 nm [7]	absorbance at 450 nm [8]	absorbance at 450 nm [9]	EC50 (cynomolgus PD-1Fc)	Kd [10]	koff [10]	kon [10]	EC50 [11]	binding result [12]	binding result [13]	binding result [14]	binding result [15]	Binder
0.14 nM	3.89 nM	1.36 nM																humanized antibody H005-4 (antibody, human IgG4 S228P, kappa, F234A L235A, name in Kabat numbering, V domains shown, Back-mutated variant of H005-1, IgG4 constant region) VH: EVQLVESGGGLVQPGGSLRLSCAASGFTFSSYMMSWVRQAPGKRLEWVATISGGGANTYYPDSVKGRFTISRDNAKNSLYLQMNSLRAEDTAVYYCARQLYYFDYWGQGTTVTVSS VL: DIQMTQSPSSLSASVGDRVTITCLASQTIGTWLTWYQQKPGKSPKLLIYTATSLADGVPSRFSGSGSGTDFTLTISSLQPEDFATYYCQQVYSIPWTFGGGTKVEIKR
0.15 nM	2.45 nM	1.33 nM																humanized antibody H005-3 (antibody, human IgG4 S228P, kappa, F234A L235A, name in Kabat numbering, V domains shown, Back-mutated variant of H005-1, IgG4 constant region) VH: EVQLVESGGGLVQPGGSLRLSCAASGFTFSSYMMSWVRQAPGKGLEWVATISGGGANTYYPDSVKGRFTISRDNAKNSLYLQMNSLRAEDTAVYYCARQLYYFDYWGQGTTVTVSS VL: DIQMTQSPSSLSASVGDRVTITCLASQTIGTWLTWYQQKPGKSPKLLIYTATSLADGVPSRFSGSGSGTDFTLTISSLQPEDFATYYCQQVYSIPWTFGGGTKVEIKR
			1.13 nM	0.15	0.12	0.17	2.64	0.07	0.27 nM	3.57 nM	0.000377 s⁻¹	106000 M⁻¹ s⁻¹	0.25 nM	no binding	no binding	no binding	no binding	murine monoclonal antibody mAb005 (antibody, V domains shown, Murine monoclonal antibody from a hybridoma; also called PD-1 antibody mAb005) VH: EVMLVESGGGLVKPGGSLKLSCAASGFTFSSYMMSWVRQTPEKRLEWVATISGGGANTYYPDSVKGRFTISRDNAKNTLYLQMSSLRSEDTALYYCARQLYYFDYWGQGTTLTVSS VL: DIQMTQSPASQSASLGEGVTITCLASQTIGTWLTWYQQKPGKSPQLLIYTATSLADGVPSRFSGSGSGTKFSFKISSLQAEDFVTYYCQQVYSIPWTFGGGTKLEIK
